Key:
[1] = molecular target: T1, human C4b (human) (UniProt P0C0L4)
T1 sequence: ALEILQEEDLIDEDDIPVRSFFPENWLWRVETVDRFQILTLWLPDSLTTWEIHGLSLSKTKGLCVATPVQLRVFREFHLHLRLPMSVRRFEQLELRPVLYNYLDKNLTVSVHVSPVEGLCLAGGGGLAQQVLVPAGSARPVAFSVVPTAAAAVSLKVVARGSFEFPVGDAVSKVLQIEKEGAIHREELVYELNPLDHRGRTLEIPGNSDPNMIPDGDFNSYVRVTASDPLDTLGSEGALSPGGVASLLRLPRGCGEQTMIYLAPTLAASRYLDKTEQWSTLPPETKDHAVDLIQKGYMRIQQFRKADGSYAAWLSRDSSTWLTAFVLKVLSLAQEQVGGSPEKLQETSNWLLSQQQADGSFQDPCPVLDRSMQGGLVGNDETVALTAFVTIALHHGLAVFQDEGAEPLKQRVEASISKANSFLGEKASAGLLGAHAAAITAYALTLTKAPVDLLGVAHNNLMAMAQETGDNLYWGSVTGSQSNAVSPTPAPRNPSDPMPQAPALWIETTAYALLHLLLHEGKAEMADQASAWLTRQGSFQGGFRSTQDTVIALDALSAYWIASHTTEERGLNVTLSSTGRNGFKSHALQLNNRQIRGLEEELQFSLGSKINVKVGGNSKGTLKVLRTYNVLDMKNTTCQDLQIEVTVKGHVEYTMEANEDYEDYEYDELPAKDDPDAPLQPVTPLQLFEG

[2] = molecular target: soluble human C3b (human) (UniProt P01024)
[3] = molecular target: T1, human C4b (human); remark: listed apart in the source
[4] = molecular target: soluble human C3b (human) (UniProt P01024); remark: listed apart in the source

Substance | C4b Screen Ref Fold (fold of reference) [1] | iC3b Screen Ref Fold (fold of reference) [2] | C4c EC50 (nM) [3] [nM] | iC3b EC50 [4] [nM] | C4b Screen Ref Fold (fold of CFI-HSA wild type) [1] | iC3b Screen Ref Fold (fold of CFI-HSA wild type) [2] | C4c EC50 [3] [nM]
CFI-HSA variant E457M (enzyme) | 1.6 | 1.05 | 482 | 25.4 | – | – | –
CFI-HSA variant K504R; E457G; E461Q; N531G (enzyme) | – | – | 8.2 | 3 | 4.18 | 2.98 | –
CFI-HSA variant E416A; K504H (enzyme) | – | – | 168 | 20.8 | 0.63 | 0.59 | –
CFI-HSA variant E457S (enzyme) | 0.81 | 1.07 | 428 | 21.3 | – | – | –
CFI-HSA variant E457K (enzyme) | 4.58 | 1.37 | 135 | 9.5 | – | – | –
CFI-HSA variant K504F (enzyme) | 0.29 | 0.13 | > 1000 | 77.5 | – | – | –
CFI-HSA variant E457G; E461Q; R462K; F464Y; E530F; N531G; P558S (enzyme) | – | – | 21.4 | 5.5 | 4.65 | 2.22 | –
CFI-HSA variant E457G; E461Q; F464Y; K504H; N531G (enzyme) | – | – | > 1000 | 22.7 | 1.78 | 0.49 | –
CFI-HSA variant G406L (enzyme) | 0.92 | 0.82 | – | 31.9 | – | – | 386
CFI-HSA variant N531L (enzyme) | 3.47 | 1.04 | 219 | 17.6 | – | – | –
CFI-HSA variant E457T (enzyme) | 1.34 | 1.5 | > 1000 | 10.4 | – | – | –

Continued, values first:

C4b Screen Ref Fold (fold of reference) [1] | iC3b Screen Ref Fold (fold of reference) [2] | C4c EC50 (nM) [3] [nM] | iC3b EC50 [4] [nM] | C4b Screen Ref Fold (fold of CFI-HSA wild type) [1] | iC3b Screen Ref Fold (fold of CFI-HSA wild type) [2] | C4c EC50 [3] [nM] | Substance
0.09 | 0.15 | > 1000 | 110 | – | – | – | CFI-HSA variant E457W (enzyme)
– | – | 6.3 | 6.6 | 3.44 | 1.06 | – | CFI-HSA variant T377G; Y408L; E457G; E461Q; R462K; N531G (enzyme)
0.72 | 0.73 | – | 37.2 | – | – | > 1000 | CFI-HSA variant G406F (enzyme)
1.57 | 0.38 | – | 65.5 | – | – | > 1000 | CFI-HSA variant G406W (enzyme)
– | – | 7.2 | 4.3 | 4.21 | 1.89 | – | CFI-HSA variant P558S; E457G; E461Q; N531G (enzyme)
– | – | > 1000 | 5.2 | 0.09 | 3 | – | CFI-HSA variant K504R; E530F; D425R; P558S (enzyme)
4.22 | 1.71 | 87.5 | 7.3 | – | – | – | CFI-HSA variant E461L (enzyme)
2.86 | 0.18 | 196 | 51.6 | – | – | – | CFI-HSA variant K504Y (enzyme)
4.6 | 1.42 | 182 | 10.5 | – | – | – | CFI-HSA variant E457R (enzyme)
– | – | > 1000 | 5.7 | 0.05 | 2.91 | – | CFI-HSA variant K504R; E530F; D425K; P558S (enzyme)

Reference: US20230038638A1, “COMPLEMENT FACTOR I-RELATED COMPOSITIONS AND METHODS” (published 2023)
